How the values were obtained:
Assay in all cases: Biacore SPR
TGFβ3 = target: T1, TGFβ3 (human, UniProt P10600 301-412)
T1 construct: Human (PeproTech) is stated for the A549 reporter assay; also called TGF-beta3
T1 sequence (looked up): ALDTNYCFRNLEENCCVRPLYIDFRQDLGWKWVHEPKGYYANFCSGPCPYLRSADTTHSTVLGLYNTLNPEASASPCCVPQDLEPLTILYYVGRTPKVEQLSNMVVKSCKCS
Procedure: (§1) The heteromeric or homomeric protein complexes were independently captured onto the system using an anti-Fc antibody. Ligands were injected and allowed to flow over the captured receptor protein.

TGFβ2 = target: T2, TGFβ2 (human, UniProt P61812 303-414)
T2 construct: Human (PeproTech) is stated for the A549 reporter assay; also called TGF-beta2
T2 sequence (looked up): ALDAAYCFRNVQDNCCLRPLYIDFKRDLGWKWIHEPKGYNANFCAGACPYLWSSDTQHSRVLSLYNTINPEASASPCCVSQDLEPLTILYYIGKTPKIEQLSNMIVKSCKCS
Procedure: as §1

TGFβ1 = target: T3, TGFβ1 (human, UniProt P01137 279-390)
T3 construct: Human (PeproTech) is stated for the A549 reporter assay; also called TGF-beta1
T3 sequence (P01137 279-390 limits assumed): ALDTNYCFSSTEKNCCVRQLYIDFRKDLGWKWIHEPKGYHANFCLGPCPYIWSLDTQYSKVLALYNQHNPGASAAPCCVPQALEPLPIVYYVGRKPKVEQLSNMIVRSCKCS
Procedure: as §1

BMP10 = target: T4, BMP10 (UniProt O95393 317-424)
T4 sequence (looked up): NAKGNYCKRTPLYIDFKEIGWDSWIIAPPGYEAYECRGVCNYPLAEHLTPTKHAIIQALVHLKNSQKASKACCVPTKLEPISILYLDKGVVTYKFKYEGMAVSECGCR
Procedure: (§2) Ligands were injected and allowed to flow over the captured receptor protein.

BMP9 = target: T5, BMP9 (UniProt Q9UK05 320-429)
T5 construct: also called GDF2
T5 sequence (looked up): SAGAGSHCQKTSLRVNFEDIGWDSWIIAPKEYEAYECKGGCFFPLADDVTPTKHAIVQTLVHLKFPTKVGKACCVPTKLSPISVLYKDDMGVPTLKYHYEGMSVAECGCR
Procedure: as §2

BMP6 = target: T6, BMP6 (UniProt P22004 382-513, limits assumed)
T6 sequence (looked up): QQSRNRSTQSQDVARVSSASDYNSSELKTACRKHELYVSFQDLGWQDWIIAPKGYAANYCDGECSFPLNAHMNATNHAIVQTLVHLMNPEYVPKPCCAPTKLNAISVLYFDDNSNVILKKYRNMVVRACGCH
Procedure: as §2

GDF11 = target: T7, GDF11 (UniProt O95390 299-407)
T7 construct: also called BMP11
T7 sequence (looked up): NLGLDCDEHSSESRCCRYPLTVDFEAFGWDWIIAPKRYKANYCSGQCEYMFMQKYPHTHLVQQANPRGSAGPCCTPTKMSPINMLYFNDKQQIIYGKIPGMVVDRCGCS
Procedure: as §2

GDF8 = target: T8, GDF8 (UniProt O14793 267-375)
T8 construct: also called myostatin
T8 sequence (looked up): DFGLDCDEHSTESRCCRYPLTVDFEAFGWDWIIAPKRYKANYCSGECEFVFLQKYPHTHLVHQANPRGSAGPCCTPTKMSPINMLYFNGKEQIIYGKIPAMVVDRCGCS
Procedure: as §2

GDF3 = target: T9, GDF3 (UniProt Q9NR23 251-364)
T9 sequence (looked up): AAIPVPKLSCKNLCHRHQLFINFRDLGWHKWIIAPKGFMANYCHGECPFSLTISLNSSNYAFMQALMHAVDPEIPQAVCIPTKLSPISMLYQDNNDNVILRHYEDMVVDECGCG
Procedure: as §2

activin B = target: T10, activin B (UniProt P09529 293-407)
T10 sequence (looked up): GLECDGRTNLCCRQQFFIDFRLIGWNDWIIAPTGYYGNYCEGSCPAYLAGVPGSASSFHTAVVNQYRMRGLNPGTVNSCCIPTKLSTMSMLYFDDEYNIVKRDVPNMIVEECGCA
Procedure: as §2

Measured: binding result

B1: ALK5-Fc homodimer (Fc fusion, UniProt P36897 34-126, looked up, not shown: a dimerising Fc or GST)
chain: LQCFCHLCTKDNFTCVTDGLCFVSVTETTDKVIHNSMCIAEIDLIPRDRPFVCAPSSKTGSVTTTYCCNQDHCNKIELPTTVKSSPGLGPVEL
notes: extracellular domain
no binding: TGFβ3 | TGFβ2 | TGFβ1 | BMP10 | BMP9 | BMP6 | GDF11 | GDF8 | GDF3 | activin B
